Reference: article PMC9563779

Molecular target: Oslo-2 mAb
Test: peptide array on cellulose membrane (epitope mapping)
Details: chain shown with the change; duplicates; parent: est. 12000; read off a plot

Sequence of Oslo-2 mAb (chain, as listed by the source, chain 1 of 2): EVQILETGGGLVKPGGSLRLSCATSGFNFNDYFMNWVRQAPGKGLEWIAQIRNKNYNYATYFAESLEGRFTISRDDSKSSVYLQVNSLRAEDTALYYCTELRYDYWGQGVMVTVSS
Sequence of Oslo-2 mAb (chain, as listed by the source, chain 2 of 2): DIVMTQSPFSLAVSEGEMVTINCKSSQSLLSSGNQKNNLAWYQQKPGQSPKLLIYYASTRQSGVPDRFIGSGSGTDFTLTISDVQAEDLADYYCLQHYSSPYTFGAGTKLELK

GVKPDLSYMPIWKFPDAAGA [20 mer epitope peptide … (region 603-622 in HER2) E619A; E620A]
response: 1700
